Experimental findings from paper PMC4169592 are described below.

This assay deals with EGFP-Vinexin β (mouse). As to the kind of experiment: FRET or BRET; acceptor photobleaching FRET in stress granules of live COS-7 cells; EGFP donor, mCherry RFP acceptor. For orientation: Bioluminescence resonance energy transfer reports proximity on the nanometre scale.

For the substance RFP-CPEB4 (natural protein), the FRET efficiency came out at 14.5%.
